Measurements from publication PMC3324464, “The GPI Anchor Signal Sequence Dictates the Folding and Functionality of the Als5 Adhesin from Candida albicans” (PLoS ONE, 2012).
Entries after “also recorded” stand apart in the source; their conditions may differ.

Columns and labels:
[1] = Aggregation/precipitation on concentrating the protein; assay type: physicochemical; conditions: attempts to concentrate protein above ∼0.09 mg/ml
Source text: However, we observed bands of Mr ∼270 kDa, for both GST-Als5 and GST-Als5-SS (Figure 1B). This marked difference between the observed molecular weights in SDS-PAGE and the expected molecular weights has been previously attributed to the high content of hydroxyl amino acids in proteins; both Als5 and Als5-SS are rich in serine and threonine residues.
It must be pointed out that a PreScission^TM protease site exists between the fusion tag and the Als5 proteins in the two constructs. However, our attempts to cleave off the fusion tag with the protease met with poor success. The PreScission^TM protease is also available as a GST-tagged enzyme and it is possible that steric factors precluded the interaction of the protease with the cleavage site in our fusion protein. Additionally, our protein yields to begin with were very low (∼0.09 mg/ml) and this too could have affected the efficiency of the cleavage. […] We used similarly expressed and purified GST as the control for all our experiments. Similar studies with GST-tagged proteins, including conformational studies, have been reported by other groups previously (cf.).

Candida SC5314 cells = assay: Competition of anti-Als5 antibody binding to Candida cell surface, flow cytometry; assay type: cell-based, Candida albicans; conditions: TRITC secondary antibody, 37 °C 1 hour, mean of 3 independent experiments in duplicates
Protocol: The production of the antibodies was outsourced (Merck India Ltd.). Polyclonal antibodies were generated in rabbit against the protein band obtained after an SDS-PAGE run of GST- Als5-SS. The antibodies detected both GST-Als5 as well as GST-Als5-SS on a Western Blot. The specificity of the generated anti-Als5 antibody was checked by detecting its ability to bind to the Candida cell surface adhesins. For staining, Candida SC5314 cells (a kind gift from Prof. Rajendra Prasad, SLS, JNU) were grown in synthetic dextrose minimal medium at 30°C to an OD600nm of 0.5. 500 µl of the cells were taken in an eppendorf and washed with PBS. […] The cells were then washed thrice with PBS, and the presence of the TRITC labelled secondary Ab on the Candida cells was detected using flow cytometry. To rule out the non-specific interaction of the secondary Ab with the proteins on Candida cell surface, unstained cells were also detected by flow cytometer. […]
In order to confirm the identity of the Als5 protein, we also designed the following experiment. […] Using a TRITC labelled secondary antibody, we detected the bound primary antibodies on the Candida cells by flow cytometry. […]
Figure 2 GST-Als5 specifically blocks binding of anti-Als5 antibody on Candida cell surface. […] This primary antibody was detected by a secondary antibody that was conjugated with TRITC and detected using flow cytometry as described in the text. […]

B1: GST-Als5: GST fusion of full length Als5 minus the GPI anchor attachment signal sequence, expressed in E. coli (protein)
chain: ITGIFNSIDSLTWSNAGNYAFKGPGYPTWNAVLGWSLDGTSANPGDTFILNMPCVFKFTASQKSVDLTADGVKYATCQFYSGEEFTTFSSLKCTVNNNLRSSIKALGTVTLPIAFNVGGTGSSVDLEDSKCFTAGTNTVTFNDGSKKLSIAVNFEKSTVDQSGYLTTSRFMPSLNKIATLYVAPQCENGYTSGTMGFSTSYGDVAIDCSNVHIGISKGVNDWNHPVTSESFSYTKSCSSFGISITYQNVPAGYRPFIDAYISPSDNNQYQLSYKNDYTCVDDYWQHAPFTLKWTGYKNSDAGSNGIVIVATTRTVTDSTTAVTTLPFNPSVDKTKTIEILQPIPTTTITTSYVGVTTSYSTKTAPIGETATVIVDVPYHTTTTVTSEWTGTITTTTTRTNPTDSIDTVVVQVPLPNPTTTTTQFWSESFTSTTTITNSLKGTDSVIVREPHNPTVTTTEFWSESYATTETITNGPEGTDSVIVREPHNPTVTTTEFWSESYATTETVTNKPEGTDSVIIKEPHNPTVTTTEFWSESYATTETITTGPLGTDSIVIHDPLEESSSTTAIESSDSNISSSAQESSSSVEQSSSIVGLSSSSDIPLSSDMPSSSSTGLTSSESSTVSSYDSDSSSSSELSTFSSSESYSSSISDTTNFWDSSSSDLESTSITWSSSIDAQSSQSVQSVSNSISTSQETTSSSGEESNTSVTDILVSSDASSILNSDISSYYPSSTISLSDDFPHTIAGEPDSRSSSSIASTVEISSDLVSLTSDPTSSFDSSSSLNSDSSSSPFSDESDISASSSFSTLVAPSFSLSSSSSLSLTYPHYVNSTTYHASESESSSVASPSMASESANDDTHTLSESTDTTSSIGTDSSTVTFCRRDNGDGCIVTGMPSSSIDSEQTSDVTTTSSFVASSTPTSAEQSITDNPNIDSSQTSASSSTKSSVSVSDTVVNSISLSETSTLSSDDSTSSDTSISSTTNSDTGNINAGSSHTSTASIKESSIQKTGVMLSSSYLSTKLSSTSDITTELITTELITTELTTIEDNEPNTFTSTPSSHSEIFSSDNSVLSKQVDRESTIKTSPTTDVTTVSSLSVHSTEASTATLGENSFSNVASTPSNIATSLRSTSSSSNHATESSGTVKSEASAEAIPSPPTSTDNRLSYSTEEAKGITYANSGSTNNLITESQVAAPTDSTSVLIENPVVTSTFDDNSSAAVDQPSKTKSIEESIMNPDSTNETNNGFIATLSQAQVPNSLIHSESISTTMAKTTDASINGDSAASNSQPTTLIQQVATSSYNQPLITTYAGSSS
modifications: left off: GST, N-terminal, kept
**Q.** For B1, which “aggregation and precipitation on concentrating (in words)” value [1] is on record?
**A.** aggregating and precipitating out; also recorded: tended to aggregate and precipitate out of solution

**Q.** What about the “inhibition of anti-Als5 antibody binding to Candida cells (in words)” value (Candida SC5314 cells) of the same molecule?
**A.** could inhibit the interaction of the primary antibodies to the cell surface in a concentration dependent manner; also recorded: inhibited the binding of anti-Als5 antibody to C.albicans cell surface in a concentration dependent manner
